Assay [1] has as its system 125I-alpha-BTX. The class given is binding. The procedure: FIG. 2 illustrates the binding of alpha-BTX to alpha1-210 of FIG. 1. (A) Scatchard plot analysis of ^125I-alpha-BTX binding to alpha1-210 fragment. Culture supernatants containing alpha1-210 (40 microliters, 40 ul) were incubated with various concentrations of ^125I-alpha-BTX in 10 ul of PBS-0.2 % bovine serum albumin (BSA), then, after 3 hours incubation at 40° C., the samples were filtered through Whatman DE81 filters, and the bound radioactivity measured on a gamma counter (filter assay). Samples were processed in duplicates. […] (B) The specific binding of the ^125I-alpha-BTX to alpha1-210 fragment was studied in competition experiments involving the simultaneous addition of increasing concentrations of unlabeled toxin. Samples were processed in duplicates. Binding of labeled alpha-BTX in the absence of unlabeled alpha-BTX was taken as the 100% level. (C) Effect of deglycosylation on ^125I-alpha-BTX binding to alpha1-210. In vitro deglycosylation was performed using N-glycosidase F treatment. Aliquots at various reaction time-points were assayed for ^125I-alpha-BTX binding in filter assay experiments. Samples were processed in duplicates (dark columns, N-glycosidase F treatment; light columns, control treatment).
To study the binding of alpha-BTX to alpha1-210 as an indication of correct protein folding, we tested both crude culture supernatants and the purified protein in “filter assay” experiments: Fifty nanograms of purified alpha1-210 or […] of culture supernatant was incubated at […] for 3 h with various concentrations of ^125I-alpha-BTX (specific activity 800,000 cpm/pmole) in a final volume of […] of PBS buffer, pH 7.5, 0.2% BSA. The samples were then diluted with 1 ml of 0.5% Triton X-100 in 20 mM Tris buffer, pH 7.5 (Triton buffer) and immediately filtered through two Whatman DE81 filters prewashed with Triton buffer. The filters were then washed twice with 1 ml of Triton buffer and the bound radioactivity measured on a gamma-counter. Samples without alpha1-210 were used to measure non-specific binding. Specific binding of alpha-BTX was also studied in competition experiments by addition of various amounts of unlabeled alpha-BTX to the sample.

The subject of assay [2] is anti-AChR autoantibodies from MG sera. Description: Binding of MG patients' autoantibodies to 125I-alpha-BTX-labeled alpha1-210 and hybrid AChR (RIA). Also on record: species or system human. The procedure: 50 MG-positive sera were assayed for binding to alpha1-210 and to a hybrid AChR molecule (HaTbgd) containing human alpha subunit and Torpedo beta, gamma and delta subunits, labeled with ^125I-alpha-BTX. MG sera binding to ^125I-alpha-BTX-alpha1-210 were plotted versus binding to ^125I-alpha-BTX-HaTbgd in a logarithmic scale. […] Samples were processed in duplicates.
70 human sera were screened: 50 MG and 20 healthy controls (5 ul of human sera/sample).

Assay [3] has as its system anti-AChR antibodies from MG sera. The experiment in a line: Immunoadsorption of anti-AChR antibodies from MG sera by CNBr-Sepharose-immobilized subunit domains, RIA with human AChR from TE671 cells. The class given is binding. The note with it: for percentage of anti-AChR antibodies eliminated, best-adsorbed sera: 13 of 64 (20%) MG sera, 2.5 ul serum. The procedure:
FIG. 6 illustrates the immunoadsorption of anti-AChR antibodies from MG sera using immobilized alpha1-210 (black bars), gamma1-218 (grey bars) and epsilon1-219 (blank bars). Each subunit has been expressed in the yeast Pichia pastoris and the purified proteins have been covalently immobilized on CNBr-Sepharose beads. 64 MG positive sera were assayed for binding to human AChR after incubation with alpha1-210 immobilized on CNBr-Sepharose (together with BSA) or with just BSA immobilized on the same insoluble matrix. 2.5 ul of each MG patient serum were incubated with 0.2 ug immobilized alpha1-210 mixed with BSA or the same amount of BSA at […] for 2-3h (in a total volume of 0.16 ml) followed by centrifugation. Samples of the supernatants, each containing an amount corresponding to 0.9 ul of the treated MG sera were subsequently used in a typical RIA MG diagnostic test (Lindstrom et al., Meth. Enzymol. 74, 432460, 1981) with human AChR from TE671 cells. The percentage of immunoadsorption was estimated as described in the Example 3. Samples were processed in duplicates. Results shown (black bars) are an average of two experiments. Sera are sorted in decreasing percentage of immunoadsorption to immobilized alpha1-210.
FIG. 7 illustrates the immunoadsorption of anti-AChR antibodies from MG sera against immobilized alpha1-210 (black bars), gamma1-218 (gray bars) and a mix of both immobilized alpha1-210 and gamma1-218 (hatched bars). 9 MG sera were assayed for binding to human AChR after incubation of 20 fmoles anti-AChR MG antibodies with alpha1-210 (1 ug), or gamma1-218 (1 ug) or alpha1-210/gamma1-218 mix (containing 1 ug of each subunit) immobilized on CNBr-Sepharose. Incubation with just BSA immobilized to the same insoluble matrix served as a control to calculate the percent immunoadsorption against each of the subunits and the mix of both. After incubation with the Sepharose-immobilized proteins, sera were screened in a typical RIA experiment using TE671 AChR. The percentage of immunoadsorption was estimated as described in the Example 3. Samples were processed in duplicates. Results shown are an average of two experiments.
Immunoadsorption of MG autoantibodies by immobilized alpha1-210. 0.1 mg alpha1-210 mixed with 1.4 mg BSA was covalently bound to 0.5 gr CNBr-Sepharose according to manufacturer's protocol (Amersham). BSA was simply added to increase the protein/Sepharose ratio because the ratio of recombinant protein to Sepharose beads used would otherwise be too small; BSA is not necessary for larger scale experiments. In parallel, 1.5 mg BSA was bound to the same amount of CNBr-Sepharose under the same conditions as control. 2.5 ul MG patient sera were incubated with 0.2 ug immobilized alpha1-210 mixed with BSA, or the same amount of immobilized BSA alone, at 4° C. for 2-3 h (in a total volume of 0.16 ml) followed by centrifugation for bead precipitation. Samples of the supernatants, each containing an amount corresponding to 0.9 ul of these treated MG sera were subsequently used in a typical RIA MG diagnostic test (Lindstrom et al., Meth. Enzymol. 74, 432460, 1981) with human AChR from TE671 cells. The percentage of immunoadsorption was estimated as the ratio between the reduction in immunoprecipitated radiolabeled human AChR after incubation with alpha1-210 and the immunoprecipitated radiolabeled human AChR without incubation with alpha1-210 (incubation with plain immobilized BSA). 64 MG positive sera were assayed for binding to human AChR after incubation with immobilized alpha1-210 or BSA. […] We also tested immunoadsorption of the same set of MG sera by incubating 0.2 ug immobilized alpha1-210 with a fixed amount of anti-AChR antibodies (20 fmoles in variable volumes of MG sera depending on their titer) rather than a fixed serum volume.
Immunoadsorption of MG autoantibodies by immobilized gamma1-218 or epsilon1-219 domains. […]

For assay [4], the system named is 125I-alpha-BTX. The experiment in a line: 125I-alpha-BTX filter assay of alpha domain expressed in HEK293 cells (SFV vector). The class given is binding. Particulars: expressed in HEK293 cells with recombinant SFV-1 vector. The procedure:
[…] Approximately 2×10^6 transfected cells were allowed to express the protein of interest. Cells and medium supernatant were collected after two days. Cells were washed in cocktail buffer (1×PBS pH7.4 with PMSF. 1 mM, aprotinin 5units/ml, leupeptin 5 micrograms/ml, iodoacetamide 1 mM). The medium supernatant (12 ml) was concentrated […] to a final volume of 2.5 ml and dialysed against PBS buffer at 4° C. To extract the receptor, the cell pellet was resuspended in 0.5 ml of cocktail-2% Triton-X100 and the mixture was left at 4° C. with mild agitation. The mixture was subsequently centrifuged at 15000 g for 15 min and the supernatant was tested for ^125I-alpha-BTX binding. The filter assay technique (as described in Example 1) was used to test whether the expressed protein was secreted in the medium supernatant or retained within the cell (in either the cytoplasm or the membrane).
Having established that the cloned product is functional, the recombinant SFV plasmid is linearized at SpeI site, purified and used in an in vitro mRNA synthesis using the mMESSAGE mMACHINE kit (Ambion Inc.) Approximately 20 micrograms of mRNA produced is obtained and used to electroporate 0.7 ml of 10^7 cells/ml HEK293 cells. We only use the recombinant SFV-1 vector without the helper plasmid at this stage. Both the cells and the supernatant are collected two days post-electroporation. […]

A further assay concerns alpha1-210. Description: Delta1-224 studied together with alpha1-210 in 125I-alpha-BTX binding experiments. Set-up: species or system human.

“Also recorded” adds a separate entry of the source. Read-outs that look alike come from different tables or passages of the source.

B1: alpha1-210 (protein)
chain: SEHETRLVAKLFKDYSSVVRPVEDHRQVVEVTVGLQLIQLINVDEVNQIVTTNVRLKQQWVDYNLKWNPDDYGGVKKIHIPSEKIWRPDLVLYNNADGDFAIVKFTKVLLQYTGHITWTPPAIFKSYCEIIVTHFPFDEQNCSMKLGTWTYDGSVVAINPESDQPDLSNFMESGEWVIKESRGWKHSVTY
modifications: glycosylated at residue 141
A word on the Kd: it is the concentration at which binding is half-saturated. B1: in the assay on 125I-alpha-BTX [1], the “125I-alpha-BTX binding after deglycosylation” value was “practically totally lost; also recorded: markedly impaired”. Also, the “binding of 125I-alpha-BTX (in words)” value in the assay with 125I-alpha-BTX [1] was “high affinity”. Also, the Kd at 125I-alpha-BTX [1] (read-out: average Kd of 125I-alpha-BTX binding, series of experiments) is 5.1 ± 2.4 nM; on 125I-alpha-BTX [1] (read-out: estimated Kd of 125I-alpha-BTX binding, representative experiment) it was 3.3 nM. Moreover, the “proportion of MG sera with high anti-alpha titers that recognized the protein” value in assay [2] was 66%. Besides, in assay [3] (0.2 ug immobilized protein, 20 fmoles antibodies in variable serum volumes), the “immunoadsorption with fixed amount of anti-AChR antibodies compared with fixed serum volume” value is “identical with the above immunoadsorption results”. The “percentage of anti-AChR antibodies eliminated, best-adsorbed sera” value in assay [3] (0.2 ug immobilized protein) is “more than 60%”; in assay [3] (0.2 ug immobilized protein, listed as immobilized alpha domain) it was “more than 60%”. Further, the “average percentage of anti-AChR antibodies eliminated in all sera tested” value in assay [3] (all sera tested) was found to be 37%. Moreover, the “percentage of immunoadsorption, intermediate sera” value in assay [3] (another 24 sera (37%) of 64) is reported as 20-60%. Moreover, in assay [3] (serum no. 3, 1 ug of each immobilized subunit, 20 fmoles antibody), the “immunoadsorption of serum no. 3” value is 54%. In addition, in assay [3] (titration experiments, 0.25 ml serum of titer 5 nM), the “amount of antibody eliminated by 1 ug immobilized protein” value is ≥ 1250 fmol. Besides, the “volume of MG serum from which 1 ug immobilized protein eliminates the anti-alpha antibodies” value in assay [3] (titration experiments, MG serum of titer 5 nM) is “at least 0.25 ml”.

B2: alpha 1-210: extracellular domain of human alpha AChR with ApoE leader and six histidines, expressed in HEK293 cells by SFV vector (protein)
chain: B1 chain
modifications: glycosylated at residue 141
In the case of B2, in the assay with 125I-alpha-BTX [4], the “ability to bind 125I-alpha-BTX” value is given as “good ability to bind”.

B3: delta1-224: N-terminal extracellular domain of human muscle AChR delta subunit expressed in Pichia pastoris, FLAG epitope (protein)
chain: DYKDDDDKLNEEERLIRHLFQEKGYNKELRPVAHKEESVDVALALTLSNLISLKEVEETLTTNVWIEHGWTDNRLKWNAEEFGNISVLRLPPDMVWLPEIVLENNNDGSFQISYSCNVLVYHYGFVYWLPPAIFRSSCPISVTYFPFDWQNCSLKFSSLKYTAKEITLSLKQDAKENRTYPVEWIIIDPEGFTENGEWEIVHRPARVNVDPRAPLDSPSRQDITFYLIIRRK
modifications: glycosylated
B3: the “immunoadsorption of anti-AChR antibodies (in words)” value in assay [3] (immobilized on Sepharose-CNBr) is “lower but very significant percentages; also recorded: large fractions”. In addition, the “interaction between recombinant subunit domains” value in the assay on alpha1-210 is “temporary weak interaction”.

(Values after US20050203281A1, “Production of recombinant fragments of muscle acetylcholine receptor and their use for ex vivo immunoadsorption of anti-ch receptor antibodies from myasthenic patients” (priority 2002, published 2005).)
